{"source": "paper PMC6021111", "about": "“Murine leukemia virus p12 tethers the capsid-containing pre-integration complex to chromatin by binding directly to host nucleosomes in mitosis” (PLoS Pathogens, 2018)", "molecules": {"B1": {"name": "GST-p12_WT: N-terminally GST-tagged Mo-MLV p12 (protein)", "chain": "PALTPSLGAKPKPQVLSDSGGPLIDLLTEDPPPYRDPRPPPSDRDGNGGEATPAGEAPDPSPMASRLRGRREPPVADSTTSQAF", "modifications": "left off: GST, N-terminal, kept", "notes": "N-terminally GST-tagged Mo-MLV p12"}}, "format_in_all_cases": "cell-based", "key": {"[1]": {"tested_on": "GST-p12 phosphorylation in 293T cells", "experiment": "GST-p12 phosphorylation by ProQ diamond / Sypro ruby staining", "settings": "PQ/SR ratio, 3 technical replicates; \"at least\"", "protocol": "Firstly, GST-p12 pulled-down from mitotic cell lysates was analysed by SDS-PAGE followed by sequential staining with two fluorescent dyes, ProQ diamond (PQ) and Sypro Ruby (SR). PQ is a small molecule fluorophore that binds with high-specificity to phosphorylated proteins. SR binds all proteins and is useful as a total protein indicator. The ratio of PQ and SR dye signals provides a measure of the phosphorylation level with respect to the total amount protein. Viral p12 is known to be mainly phosphorylated at serine 61 within the CTD [19, 25]. We therefore compared the relative phosphorylation levels of GST-p12_WT with a S61A mutant. Compared to p12_S61A, p12_WT was at least 3-fold more phosphorylated (Fig 3E, lanes 2 and 3).\nGST-p12 proteins were expressed in 293T cells from pCAGGS/GST-derived plasmids by transient transfection using Turbofect (Thermo Fisher Scientific). Approximately 24 h after transfection, cells were changed into fresh media containing either 400 ng/ml nocodazole (Sigma) or 2 μg/ml aphidicolin (Sigma) and incubated overnight at 37°C. The synchronisation of the cell cultures after drug treatment was assessed by propidium iodide staining and cell cycle phase analysis by flow cytometry. […] ProQ diamond and Sypro ruby staining (Thermo Fisher Scientific) of gels was visualised and quantified on a ChemiDoc imaging system (Bio-Rad)."}, "[2]": {"tested_on": "GST-p12 phosphorylation in 293T cells", "experiment": "nano LC-MS/MS phosphopeptide identification of GST-p12", "excerpt": "We next used nanoscale liquid chromatography coupled to tandem mass spectrometry (nano LC–MS/MS) to identify phosphopeptides of GST-p12_WT precipitated from 293T cells. The phosphorylation sites in the high confidence tryptic-peptides (<1% false discovery rate, FDR) were assigned using the probability-based phosphoRS algorithm (Table 1). A peptide was counted as being phosphorylated at a specific residue if its phosphoRS site probability was >50%. For each tryptic peptide, the phosphorylation level at a particular site was estimated by dividing the phosphorylated peptide count by the total peptide count. This analysis, carried out with two biological replicates, confirmed S61 to be the main site of phosphorylation on GST-p12_WT, with ~45% of S61-containing peptides phosphorylated at this residue (Table 1). We also identified T52, S65, S78, T80 and S81 as additional sites of low-level phosphorylation on p12 (Table 1). […] The absence of a detectable association between GST-p12 and mitotic chromatin is therefore unlikely to result from a lack of phosphorylation of recombinant p12.\nTo identify phosphopeptides of GST-p12, bead eluates were separated by SDS-PAGE and stained using SimplyBlue safe stain (Thermo Fisher Scientific). The band corresponding to GST-p12 was then excised and submitted for nano-LC-MS/MS analysis as described in [54], but without phosphopeptides enrichment. The probability-based phosphoRS algorithm was used for assigning phosphorylation sites in the detected peptides."}, "[3]": {"experiment": "Biochemical fractionation of 293T cells expressing GST-p12", "settings": "cycling cells, ~40 h expression, immunoblot of S2, S3, P3", "protocol": "GST-p12 proteins were expressed in 293T cells from pCAGGS/GST-derived plasmids by transient transfection using Turbofect (Thermo Fisher Scientific). Cell media was changed 24 h after transfection, and cells were incubated overnight at 37°C, before being harvested, counted, pelleted (500 g, 5 min) and snap frozen in dry ice/ethanol. Biochemical fractionation of cells was performed essentially as described in [14]. Briefly, cell pellets thawed on ice were resuspended at 2.5× 10^7 cells/ml in buffer 1 (10 mm HEPES pH 7.9, 10 mm KCl, 1.5 mm MgCl2, 10% glycerol, 0.34 m sucrose, 1 mm DTT and protease inhibitors) and then supplemented with 0.1% Triton-X-100. Cells were incubated on ice for 5 min and nuclei (P1) were collected by centrifugation at 1300 g, 5 min, 4°C. The supernatant (S1) was clarified by further centrifugation (5 min, 20 000 × g, 4°C) to collect the cytosolic supernatant fraction (S2). The P1 nuclei were washed once with buffer 1 and then lysed for 30 min in buffer 2 (3 mM EDTA, 0.2 mM EGTA and 1 mM DTT, protease inhibitors). The chromatin (P3) and soluble nuclear (S3) fractions were separated by centrifugation (5 min, 1700 g, 4°C). The S2, S3 and P3 fractions were analysed by immunoblotting."}}}
{"molecule": "B1", "values": [{"measurement": "phosphorylation at mitosis in comparison to interphase", "setting": "[1]", "result": "3–4 fold"}, {"measurement": "Fraction of phosphorylated peptides", "setting": "[2]; S61, peptide aa 36–66, 1 missed cleavage, replicate R1", "result": 0.47}, {"measurement": "Fraction of phosphorylated peptides", "setting": "[2]; S61, peptide aa 36–66, 1 missed cleavage, replicate R2", "result": 0.52}, {"measurement": "Fraction of phosphorylated peptides", "setting": "[2]; S61, peptide aa 45–66, 0 missed cleavages, replicate R1", "result": 0.36}, {"measurement": "Fraction of phosphorylated peptides", "setting": "[2]; S61, peptide aa 45–66, 0 missed cleavages, replicate R2", "result": 0.49}, {"measurement": "Fraction of phosphorylated peptides", "setting": "[2]; S65, peptide aa 45–66, 0 missed cleavages, replicate R1", "result": 0.01}, {"measurement": "Fraction of phosphorylated peptides", "setting": "[2]; S65, peptide aa 45–66, 0 missed cleavages, replicate R2", "result": 0.07}, {"measurement": "Fraction of phosphorylated peptides", "setting": "[2]; S78, peptide aa 72–84+ linker, 0 missed cleavages, replicate R1", "result": 0.03}, {"measurement": "Fraction of phosphorylated peptides", "setting": "[2]; S78, peptide aa 72–84+ linker, 0 missed cleavages, replicate R2", "result": 0.03}, {"measurement": "Fraction of phosphorylated peptides", "setting": "[2]; S81, peptide aa 71–84+ linker, 1 missed cleavage, replicate R1", "result": 0.10}, {"measurement": "Fraction of phosphorylated peptides", "setting": "[2]; S81, peptide aa 72–84+ linker, 0 missed cleavages, replicate R1", "result": 0.03}, {"measurement": "Fraction of phosphorylated peptides", "setting": "[2]; S81, peptide aa 72–84+ linker, 0 missed cleavages, replicate R2", "result": 0.01}, {"measurement": "Fraction of phosphorylated peptides", "setting": "[2]; T52, peptide aa 45–66, 0 missed cleavages, replicate R1", "result": 0.13}, {"measurement": "Fraction of phosphorylated peptides", "setting": "[2]; T52, peptide aa 45–66, 0 missed cleavages, replicate R2", "result": 0.04}, {"measurement": "Fraction of phosphorylated peptides", "setting": "[2]; T80, peptide aa 71–84+ linker, 1 missed cleavage, replicate R1", "result": 0.04}, {"measurement": "Fraction of phosphorylated peptides", "setting": "[2]; T80, peptide aa 72–84+ linker, 0 missed cleavages, replicate R1", "result": 0.01}, {"measurement": "sub-cellular distribution by fractionation", "setting": "[3]", "result": "mainly cytoplasmic"}]}
